Reference: PMC6049025

Target: wild-type HCMV gB expressed in HEK293T cells (human cytomegalovirus (strain not stated)) (UniProt P06473)
Assay: far-Western, overlay or dot blot

Sequence of UniProt P06473 (P06473 32-906): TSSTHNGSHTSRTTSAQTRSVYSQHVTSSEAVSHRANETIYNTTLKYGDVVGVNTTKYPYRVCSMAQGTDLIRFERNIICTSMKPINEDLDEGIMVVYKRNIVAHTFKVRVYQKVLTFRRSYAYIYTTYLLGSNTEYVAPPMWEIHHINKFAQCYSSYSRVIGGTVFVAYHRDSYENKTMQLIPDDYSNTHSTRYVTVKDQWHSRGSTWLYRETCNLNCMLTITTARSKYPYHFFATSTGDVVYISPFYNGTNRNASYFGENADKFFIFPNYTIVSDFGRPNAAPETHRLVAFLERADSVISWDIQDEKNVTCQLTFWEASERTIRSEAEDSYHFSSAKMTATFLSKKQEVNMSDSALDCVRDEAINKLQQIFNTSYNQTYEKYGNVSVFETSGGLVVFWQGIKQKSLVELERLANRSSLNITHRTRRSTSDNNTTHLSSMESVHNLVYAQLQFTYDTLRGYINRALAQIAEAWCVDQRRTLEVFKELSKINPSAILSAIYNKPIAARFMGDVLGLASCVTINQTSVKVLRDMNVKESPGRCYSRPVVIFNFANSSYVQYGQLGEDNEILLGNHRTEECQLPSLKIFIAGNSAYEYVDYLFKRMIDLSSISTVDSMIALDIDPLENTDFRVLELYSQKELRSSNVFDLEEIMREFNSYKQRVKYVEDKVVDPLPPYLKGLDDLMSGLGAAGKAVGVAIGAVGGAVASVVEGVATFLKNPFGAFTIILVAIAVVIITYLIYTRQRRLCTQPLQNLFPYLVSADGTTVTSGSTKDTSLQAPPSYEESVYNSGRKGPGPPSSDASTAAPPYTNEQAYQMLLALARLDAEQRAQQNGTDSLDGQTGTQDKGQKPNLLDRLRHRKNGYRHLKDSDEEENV
Sequence of DC-SIGN-Fc (Q9NNX6 59-404): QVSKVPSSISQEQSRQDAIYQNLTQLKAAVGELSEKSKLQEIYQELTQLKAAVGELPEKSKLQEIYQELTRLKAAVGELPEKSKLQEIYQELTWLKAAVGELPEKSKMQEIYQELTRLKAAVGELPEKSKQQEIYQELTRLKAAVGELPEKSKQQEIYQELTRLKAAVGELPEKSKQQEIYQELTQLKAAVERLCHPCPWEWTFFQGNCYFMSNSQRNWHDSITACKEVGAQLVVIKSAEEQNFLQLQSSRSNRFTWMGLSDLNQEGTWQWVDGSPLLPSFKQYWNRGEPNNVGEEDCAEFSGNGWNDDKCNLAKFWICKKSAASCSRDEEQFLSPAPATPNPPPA

DC-SIGN-Fc (from UniProt Q9NNX6 59-404) (Fc fusion)
DC-SIGN-Fc binding normalized on gB expression (ratio): 1.15
